Experimental data from the RNAGym collection of RNA variant scans (doi:10.1021/acssynbio.7b00057).

B1: Pistol ribozyme (parent)
chain: GGGUCGUUGUUCCAUAAUCGCGUGGAUAUGGCACGCAAGUUUCUACCGGGCACCGUAAAUGUCCGACUGGAGCCGUUCGGGCGGCUAUAAACAGACCUCAGGCCCGAAGCGUGGCGGCACCUGCCGCCGGUGGUAAAAAAGAUCGGAAGAGCACACGUCU

Variants of: B1
Assay: aptazyme ON/OFF ratio, guanine; higher = stronger switching; co-transcriptional cleavage with and without guanine

Q: With GGGUCGUGAAACCAUAAUCGCGUGGAUAUGGCACGCAAGUUUCUACCGGGCACCGUAAAUGUCCGACUGGAGCCGUUCGGGCGGCUAUAAACAGACCUCAGGCCCGAAGCGUGGCGGCACCUGCCGCCGGUGGUAAAAAAGAUCGGAAGAGCACACGUCU [U8G G9A U10A U11A] as the variant, how does the “aptazyme ON/OFF ratio” value read?
A: 1.6

Q: Which “aptazyme ON/OFF ratio” value does the source give for GGGUCGUGAAAAUAUAAUCGCGUGGAUAUGGCACGCAAGUUUCUACCGGGCACCGUAAAUGUCCGACUGGAGCCGUUCGGGCGGCUAUAAACAGACCUCAGGCCCGAAGCGUGGCGGCACCUGCCGCCGGUGGUAAAAAAGAUCGGAAGAGCACACGUCU [U8G G9A U10A U11A C12A C13U] here?
A: 1.26

Q: Which “aptazyme ON/OFF ratio” value does the source give for GGGUCGUGAAAAAAUAAUCGCGUGGAUAUGGCACGCAAGUUUCUACCGGGCACCGUAAAUGUCCGACUGGAGCCGUUCGGGCGGCUAUAAACAGACCUCAGGCCCGAAGCGUGGCGGCACCUGCCGCCGGUGGUAAAAAAGAUCGGAAGAGCACACGUCU [U8G G9A U10A U11A C12A C13A] here?
A: 1.21

Q: For GGGUCGUGAAAAGAUAAUCGCGUGGAUAUGGCACGCAAGUUUCUACCGGGCACCGUAAAUGUCCGACUGGAGCCGUUCGGGCGGCUAUAAACAGACCUCAGGCCCGAAGCGUGGCGGCACCUGCCGCCGGUGGUAAAAAAGAUCGGAAGAGCACACGUCU [U8G G9A U10A U11A C12A C13G], which “aptazyme ON/OFF ratio” value is on record?
A: 1.18

Q: For GGGUCGUGAAAGGAUAAUCGCGUGGAUAUGGCACGCAAGUUUCUACCGGGCACCGUAAAUGUCCGACUGGAGCCGUUCGGGCGGCUAUAAACAGACCUCAGGCCCGAAGCGUGGCGGCACCUGCCGCCGGUGGUAAAAAAGAUCGGAAGAGCACACGUCU [U8G G9A U10A U11A C12G C13G], which “aptazyme ON/OFF ratio” value is on record?
A: 1.39

Q: With GGGUCGUGAAAGUAUAAUCGCGUGGAUAUGGCACGCAAGUUUCUACCGGGCACCGUAAAUGUCCGACUGGAGCCGUUCGGGCGGCUAUAAACAGACCUCAGGCCCGAAGCGUGGCGGCACCUGCCGCCGGUGGUAAAAAAGAUCGGAAGAGCACACGUCU [U8G G9A U10A U11A C12G C13U] as the variant, how does the “aptazyme ON/OFF ratio” value read?
A: 1.27

Q: For GGGUCGUGAAAGAAUAAUCGCGUGGAUAUGGCACGCAAGUUUCUACCGGGCACCGUAAAUGUCCGACUGGAGCCGUUCGGGCGGCUAUAAACAGACCUCAGGCCCGAAGCGUGGCGGCACCUGCCGCCGGUGGUAAAAAAGAUCGGAAGAGCACACGUCU [U8G G9A U10A U11A C12G C13A], which “aptazyme ON/OFF ratio” value is on record?
A: 1.22

Q: With GGGUCGUGAAAUGAUAAUCGCGUGGAUAUGGCACGCAAGUUUCUACCGGGCACCGUAAAUGUCCGACUGGAGCCGUUCGGGCGGCUAUAAACAGACCUCAGGCCCGAAGCGUGGCGGCACCUGCCGCCGGUGGUAAAAAAGAUCGGAAGAGCACACGUCU [U8G G9A U10A U11A C12U C13G] as the variant, how does the “aptazyme ON/OFF ratio” value read?
A: 1.09

Q: For GGGUCGUGAAAUUAUAAUCGCGUGGAUAUGGCACGCAAGUUUCUACCGGGCACCGUAAAUGUCCGACUGGAGCCGUUCGGGCGGCUAUAAACAGACCUCAGGCCCGAAGCGUGGCGGCACCUGCCGCCGGUGGUAAAAAAGAUCGGAAGAGCACACGUCU [U8G G9A U10A U11A C12U C13U], which “aptazyme ON/OFF ratio” value is on record?
A: 1.21

Q: With GGGUCGUGAAAUAAUAAUCGCGUGGAUAUGGCACGCAAGUUUCUACCGGGCACCGUAAAUGUCCGACUGGAGCCGUUCGGGCGGCUAUAAACAGACCUCAGGCCCGAAGCGUGGCGGCACCUGCCGCCGGUGGUAAAAAAGAUCGGAAGAGCACACGUCU [U8G G9A U10A U11A C12U C13A] as the variant, how does the “aptazyme ON/OFF ratio” value read?
A: 1.36

Q: For GGGUCGUGAAUCAAUAAUCGCGUGGAUAUGGCACGCAAGUUUCUACCGGGCACCGUAAAUGUCCGACUGGAGCCGUUCGGGCGGCUAUAAACAGACCUCAGGCCCGAAGCGUGGCGGCACCUGCCGCCGGUGGUAAAAAAGAUCGGAAGAGCACACGUCU [U8G G9A U10A C13A], which “aptazyme ON/OFF ratio” value is on record?
A: 1.25

Q: For GGGUCGUGAAUCGAUAAUCGCGUGGAUAUGGCACGCAAGUUUCUACCGGGCACCGUAAAUGUCCGACUGGAGCCGUUCGGGCGGCUAUAAACAGACCUCAGGCCCGAAGCGUGGCGGCACCUGCCGCCGGUGGUAAAAAAGAUCGGAAGAGCACACGUCU [U8G G9A U10A C13G], which “aptazyme ON/OFF ratio” value is on record?
A: 1.08

Q: With GGGUCGUGAAUCUAUAAUCGCGUGGAUAUGGCACGCAAGUUUCUACCGGGCACCGUAAAUGUCCGACUGGAGCCGUUCGGGCGGCUAUAAACAGACCUCAGGCCCGAAGCGUGGCGGCACCUGCCGCCGGUGGUAAAAAAGAUCGGAAGAGCACACGUCU [U8G G9A U10A C13U] as the variant, how does the “aptazyme ON/OFF ratio” value read?
A: 1.22

Q: Which “aptazyme ON/OFF ratio” value does the source give for GGGUCGUGAAACGAUAAUCGCGUGGAUAUGGCACGCAAGUUUCUACCGGGCACCGUAAAUGUCCGACUGGAGCCGUUCGGGCGGCUAUAAACAGACCUCAGGCCCGAAGCGUGGCGGCACCUGCCGCCGGUGGUAAAAAAGAUCGGAAGAGCACACGUCU [U8G G9A U10A U11A C13G] here?
A: 1.01

Q: For GGGUCGUGAAACAAUAAUCGCGUGGAUAUGGCACGCAAGUUUCUACCGGGCACCGUAAAUGUCCGACUGGAGCCGUUCGGGCGGCUAUAAACAGACCUCAGGCCCGAAGCGUGGCGGCACCUGCCGCCGGUGGUAAAAAAGAUCGGAAGAGCACACGUCU [U8G G9A U10A U11A C13A], which “aptazyme ON/OFF ratio” value is on record?
A: 1.12

Q: Which “aptazyme ON/OFF ratio” value does the source give for GGGUCGUGAAAACAUAAUCGCGUGGAUAUGGCACGCAAGUUUCUACCGGGCACCGUAAAUGUCCGACUGGAGCCGUUCGGGCGGCUAUAAACAGACCUCAGGCCCGAAGCGUGGCGGCACCUGCCGCCGGUGGUAAAAAAGAUCGGAAGAGCACACGUCU [U8G G9A U10A U11A C12A] here?
A: 1.21

Q: For GGGUCGUGAAAUCAUAAUCGCGUGGAUAUGGCACGCAAGUUUCUACCGGGCACCGUAAAUGUCCGACUGGAGCCGUUCGGGCGGCUAUAAACAGACCUCAGGCCCGAAGCGUGGCGGCACCUGCCGCCGGUGGUAAAAAAGAUCGGAAGAGCACACGUCU [U8G G9A U10A U11A C12U], which “aptazyme ON/OFF ratio” value is on record?
A: 1.35

Q: Which “aptazyme ON/OFF ratio” value does the source give for GGGUCGUGAAAGCAUAAUCGCGUGGAUAUGGCACGCAAGUUUCUACCGGGCACCGUAAAUGUCCGACUGGAGCCGUUCGGGCGGCUAUAAACAGACCUCAGGCCCGAAGCGUGGCGGCACCUGCCGCCGGUGGUAAAAAAGAUCGGAAGAGCACACGUCU [U8G G9A U10A U11A C12G] here?
A: 1.28
